The target of test [1] is T1, full-length tau 441 (Homo sapiens, UniProt P10636). The test can be described thus: MST.
The target of test [2] is T1, full-length tau 441. The test can be described thus: SPR. For orientation: Surface plasmon resonance follows binding to a sensor surface in real time, without labels.
The target in test [3] is T2, tau R3 domain 304-336 (Homo sapiens, UniProt P10636).
T2 chain: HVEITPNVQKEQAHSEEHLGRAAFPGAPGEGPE
Kind of test: SPR.

The text below walks through data of article PMC9917023 (2023).

By Kd is commonly meant the equilibrium constant for the complex coming apart. Higher therefore signals a looser complex.

Non-standard residues stand in square brackets, D forms with d. No end group written: not given here.

T1 sequence (P10636 2-758): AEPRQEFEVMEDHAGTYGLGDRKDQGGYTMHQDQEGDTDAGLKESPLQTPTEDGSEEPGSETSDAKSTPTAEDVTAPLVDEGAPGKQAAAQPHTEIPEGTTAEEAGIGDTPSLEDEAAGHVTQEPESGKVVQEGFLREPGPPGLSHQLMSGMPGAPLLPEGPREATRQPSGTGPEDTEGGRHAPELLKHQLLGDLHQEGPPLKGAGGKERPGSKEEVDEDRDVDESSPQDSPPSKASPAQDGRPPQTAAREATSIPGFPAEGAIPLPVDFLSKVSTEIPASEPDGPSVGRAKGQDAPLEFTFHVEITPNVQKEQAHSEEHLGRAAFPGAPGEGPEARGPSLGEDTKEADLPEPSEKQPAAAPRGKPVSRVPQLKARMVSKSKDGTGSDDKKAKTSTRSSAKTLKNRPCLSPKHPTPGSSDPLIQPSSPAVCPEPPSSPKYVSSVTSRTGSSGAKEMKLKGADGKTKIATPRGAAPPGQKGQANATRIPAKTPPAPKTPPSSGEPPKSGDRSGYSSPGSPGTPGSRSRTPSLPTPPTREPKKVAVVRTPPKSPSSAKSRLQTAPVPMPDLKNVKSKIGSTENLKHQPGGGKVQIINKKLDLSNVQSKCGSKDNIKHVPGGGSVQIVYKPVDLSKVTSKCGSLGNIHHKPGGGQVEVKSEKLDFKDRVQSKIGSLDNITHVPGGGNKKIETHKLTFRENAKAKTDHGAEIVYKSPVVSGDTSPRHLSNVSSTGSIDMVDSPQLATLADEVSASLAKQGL

In test [1], [dD]GG[dY][dQ][dI][dL][dF][dK][dI][dP]GG[dH][dI][dH][dR][dR][dR][dR][dR]-NH2 (also: CF633 label, position not given here) registered a Kd of 11.7 nM. This counts as double-digit nanomolar.

B1: TF2D-5 (peptide)
chain: [dD]GG[dY][dQ][dI][dL][dF][dK][dI][dP]GG[dH][dI][dH]-NH2
modifications: N-terminus assumed
SMILES: CC[C@@H](C)[C@@H](NC(=O)[C@@H](Cc1c[nH]cn1)NC(=O)CNC(=O)CNC(=O)[C@H]1CCCN1C(=O)[C@H](NC(=O)[C@@H](CCCCN)NC(=O)[C@@H](Cc1ccccc1)NC(=O)[C@@H](CC(C)C)NC(=O)[C@H](NC(=O)[C@@H](CCC(N)=O)NC(=O)[C@@H](Cc1ccc(O)cc1)NC(=O)CNC(=O)CNC(=O)[C@H](N)CC(=O)O)[C@H](C)CC)[C@H](C)CC)C(=O)N[C@H](Cc1c[nH]cn1)C(N)=O
In test [2], B1 displayed a Kd of 1.3 nM. That is a single-digit nanomolar value.

B2: TF2D-5a (peptide)
chain: [dD]GG[dY][dQ][dI][dL][dF][dK][dI][dP]GG[dH][dI][dH][dR][dR][dR][dR][dR]-NH2
modifications: N-terminus assumed
SMILES: CC[C@@H](C)[C@@H](NC(=O)[C@@H](Cc1c[nH]cn1)NC(=O)CNC(=O)CNC(=O)[C@H]1CCCN1C(=O)[C@H](NC(=O)[C@@H](CCCCN)NC(=O)[C@@H](Cc1ccccc1)NC(=O)[C@@H](CC(C)C)NC(=O)[C@H](NC(=O)[C@@H](CCC(N)=O)NC(=O)[C@@H](Cc1ccc(O)cc1)NC(=O)CNC(=O)CNC(=O)[C@H](N)CC(=O)O)[C@H](C)CC)[C@H](C)CC)C(=O)N[C@H](Cc1c[nH]cn1)C(=O)N[C@H](CCCNC(=N)N)C(=O)N[C@H](CCCNC(=N)N)C(=O)N[C@H](CCCNC(=N)N)C(=O)N[C@H](CCCNC(=N)N)C(=O)N[C@H](CCCNC(=N)N)C(N)=O
For B2, the Kd amounted to 0.007 nM in test [3] and 6.1 nM in test [2].
In the case of [dD]GG[dY][dQ][dI][dL][dF][dK][dI][dP]GG[dH][dI][dH]-NH2 (also: CF633 label, position not given here), the Kd in test [1] came out at 0.308 nM.
